From the RNAGym collection of RNA variant scans (doi:10.1073/pnas.2313332121)

B1: TPR t1 (parent)
chain: GACCAAUCUGCCCUCAGAGCUCGAGAACAUCUUCGGAUGCAGAGGAGGCAGGCUUCGGUGGCGCGAUAGCGCCAACGUCCUCAACCUCCAAUGCAUCCCACCACAUGAUGAUGCCUGAAGAGCCUUGGUUUUUUG

Variants of: B1
Assay: polymerase ribozyme fitness, log enrichment relative to wild type (log ratio); higher = more active; in vitro selection for triplet polymerase activity
How it was run: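 Both subunits of a heterodimeric triplet polymerase ribozyme were given their own mutant library, built by PCR and transcribed. Each library was annealed with a biotinylated primer, the partner subunit and triplets, incubated frozen at −7 °C, and its extended constructs gel-excised, captured on streptavidin beads and amplified by RT-PCR, all in one round done in triplicate. Fitness is the logarithm of genotype enrichment relative to wild-type enrichment, with replicates averaged by inverse-variance weighting. That logarithm is base 2, and Illumina-sequenced genotypes needed ≥10 input reads and ≥1 read per output.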

Row | Variant | polymerase ribozyme fitness (log ratio)
1 | C40U C88A | -0.911
2 | C40U C97U U106A C115A | -1.86
3 | C40U C98A | -5
4 | C40U C101U | 0.317
5 | C40U C104A A118U | -1.26
6 | C40U C123A | 0.43
7 | C40U C123U | 0.0584
8 | C40U G42A C101G C114A | -5.28
9 | C40U G44U C49U C53A A84C C86G G113C U125C | -3.99
10 | C40U G45U G127C | -3.96
11 | C40U G47A | -2.33
12 | C40U G48A C53A G113C | -2.73
13 | C40U G51A G60U C82G U96A U116G | -6.02
14 | C40U G51C G57U C89U G120U | -3.44
15 | C40U G51U C53U G61U G113U | -6.53
16 | C40U G52A G60U A91U U109A | -6.64
17 | C40U G52C G117C | -6.09
18 | C40U G52U | -1.14
19 | C40U G52U C88A | -1.07
20 | C40U G52U U96G A105U G120A G128C U131G | -6.51
21 | C40U G58C | -0.23
22 | C40U G60C G135U | -1.79
23 | C40U G61U | -0.267
24 | C40U G63A | -1.95

Row | Variant | polymerase ribozyme fitness (log ratio)
25 | C40U G63C C98U A100U C101U | -3.3
26 | C40U G63U | -1.68
27 | C40U G71A U81C A95U | -3
28 | C40U G71U C115U U125G U133C | -0.893
29 | C40U G110A | -1.7
30 | C40U G110C | -4.3
31 | C40U G113A C114G | -2.13
32 | C40U G113U | -2.53
33 | C40U G135U | -1.59
34 | C40U U55C C72U U96C A100C A119U G127U | -4.37
35 | C40U U55G U78G U92A G110C G122A C124G | -7.14
36 | C40U U78G C85G | -2.08
37 | C40U U87A | -0.311
38 | C40U U92G C98U G113U G117U | -6.95
39 | A41C | -0.956
40 | A41C A46C C72G C97U U133A | -3.71
41 | A41C A46C C114U U131C | -3.66
42 | A41C A46G | -1.13
43 | A41C C49A C72U | -1.51
44 | A41C C62U | -2.99
45 | A41C C70A | -3
46 | A41C C70A A118U | -2.8
47 | A41C C70G U78C | -5.64
48 | A41C C72G | -1.5

Row | Variant | polymerase ribozyme fitness (log ratio)
49 | A41C C76U C89U A111C | -1.22
50 | A41C C80U C115U | -3.59
51 | A41C C88U U92C C104U A111C U125G U132C | -4.35
52 | A41C C89G | -3.37
53 | A41C C89U | -0.432
54 | A41C C101A G120C | -1.45
55 | A41C C114G | -1.19
56 | A41C G42C G63U G127C | -4.81
57 | A41C G42C U106A | -2.3
58 | A41C G42U G71A U81C | -4.72
59 | A41C G44C | -1.48
60 | A41C G44U U87C | -1.33
61 | A41C G48A G51U C80A C99G C115A U116G | -6.22
62 | A41C G48A G60U | -1.76
63 | A41C G48C U78G A111G | -1.93
64 | A41C G51A C114G | -6.23
65 | A41C G51C | -6.13
66 | A41C G51U A121G | -3.12
67 | A41C G60C C101G U126G U132C | -4.76
68 | A41C G61U G93C | -1.3
69 | A41C G63C | -2.4
70 | A41C G63C A105G | -5.05
71 | A41C G63C G77U A91G U96G A108G U112G | -6.24
72 | A41C G63U G77C A100U | -4.24

Row | Variant | polymerase ribozyme fitness (log ratio)
73 | A41C G69U U92C | -0.226
74 | A41C G71U C98U C114A | -5.3
75 | A41C G77C C82U | -1.51
76 | A41C G107A | -5.61
77 | A41C G113C | -2.86
78 | A41C G117U C123A C124G | -3.97
79 | A41C G135U | -1.68
80 | A41G | -0.0621
81 | A41G A46U C123U | -2.51
82 | A41G A50C G77A U116C | -3.42
83 | A41G A68G | -3.96
84 | A41G A68G C82U | -5.28
85 | A41G A83U | -0.499
86 | A41G A91U | -1.63
87 | A41G A111C | -0.47
88 | A41G C49G G58U C79A | -6.14
89 | A41G C56A | -1.81
90 | A41G C56A A75U G117U | -3.99
91 | A41G C64U A91U U106A G110A | -5.83
92 | A41G C73G U87C C104U C115A C123G G135A | 0.00105
93 | A41G C79G C114A | -5.3
94 | A41G C102U | -3.18
95 | A41G G47U G120A | -3.73
96 | A41G G48A | -1.31

Row | Variant | polymerase ribozyme fitness (log ratio)
97 | A41G G51A A90C | -5.76
98 | A41G G51U C114G | -5.83
99 | A41G G61C A95C C101U U106A | -3.41
100 | A41G G63A A75G C85A U133A | -3.04
101 | A41G G63U | -2.37
102 | A41G G69C | -1.9
103 | A41G G71C U116G | -3.99
104 | A41G G113A C124A | -0.366
105 | A41G G117U | -2.99
106 | A41U | -1.14
107 | A41U A43U G69C G77C G93A C124G U131A | -1.81
108 | A41U A68G | -5.2
109 | A41U A84U C88A | -3.83
110 | A41U A105C | -5.02
111 | A41U C53A C115A | -1.03
112 | A41U C53G C62G A84U U112A | -4.47
113 | A41U C53G C62G G113C | -6.56
114 | A41U C53U C73A G120U | -2.14
115 | A41U C56A C72U U92G | -1.3
116 | A41U C56U U78G | -1.47
117 | A41U C64U C73U U106C | -1.79
118 | A41U C64U U87C U106C C123A | -1.38
119 | A41U C70A U78G C123U | -3.32
120 | A41U C70U A84U U116C C124U U130A | -5.57

Row | Variant | polymerase ribozyme fitness (log ratio)
121 | A41U C73G A90C C114U G128A | -5.13
122 | A41U C89U | -1.32
123 | A41U C89U C123A | -1.59
124 | A41U C98U | -2.83
125 | A41U C99U C124U | -5.19
126 | A41U C115U G127A | -3.9
127 | A41U C123G | 0.0535
128 | A41U C124G U129A | -0.389
129 | A41U G42C A95C | -4.1
130 | A41U G45A U55C G71A | -3
131 | A41U G45C C53G C79U C97U | -6.18
132 | A41U G45C G60A C62U | -2.39
133 | A41U G48U C76A | -1.72
134 | A41U G52A C62U G117U | -5.18
135 | A41U G52A U59C A108G C114G U125G | -5.99
136 | A41U G52C C124U U131C G135U | -1.81
137 | A41U G57A G77A | -1.68
138 | A41U G57U | -1.23
139 | A41U G57U C86G C123U | -4.13
140 | A41U G60U | -1.91
141 | A41U G60U U78A A95G U126A | -4.53
142 | A41U G61A | -1.07
143 | A41U G61A C102A U133G | -3.96
144 | A41U G63A C86G C101U | -4.01

Row | Variant | polymerase ribozyme fitness (log ratio)
145 | A41U G63U | -2.33
146 | A41U G65U | -6
147 | A41U G69C | -4.05
148 | A41U G71C | -3.84
149 | A41U G71C G117U | -5.03
150 | A41U G77A U116C U129C | -3.98
151 | A41U G110U U125A | -4.14
152 | A41U G113A | -1.81
153 | A41U U55G A91U C101G | -4.09
154 | A41U U78C A121G U131G | -0.28
155 | A41U U96G | -2.51
156 | G42A | -1.69
157 | G42A A43C | -2.41
158 | G42A A43U G52A C73U U133C | -1.65
159 | G42A A46U G48A G63A A118U | -3.82
160 | G42A A50U | -4.57
161 | G42A A50U C73A C123U | -2.52
162 | G42A A50U C101U | -4.32
163 | G42A A66U C79U | -3.79
164 | G42A A83U | -2.65
165 | G42A A91C C123U U131A | -1.71
166 | G42A A95C | -1.94
167 | G42A A108G A121G | -2.74
